Experimental data: patent US7422862B2, “Methods for identifying modulators of apoptosis” (The Burnham Institute, priority 2001, dated 2008)

Key:
[1] = target: T1, endogenous Bax (Mus musculus, UniProt Q07813); assay: Co-immunoprecipitation of endogenous Humanin and Bax from mouse testis lysates; format: binding; conditions: endogenous peptide and protein
T1 construct: from tissue; host or cells: testes of three-week-old mice
Text: (A) HEK293T cells were transfected with pcDNA3-myc plasmids encoding Bax or other Bcl-2 family proteins with GFP, GFP-HN, or GFP-HN(C8P). Cell lysates were immunoprecipitated with polyclonal anti-GFP antibody. The immunoprecipitates or the lysates were blotted with anti-myc or anti-GFP antibodies, respectively. The slower migrating form of GFP seen in lane 1 (asterisk)represents an alternative form of GFP produced from the wild-type (control) p-EGFP-Cl plasmid (http://clonotech.com). (B) Testes of three-week-old mice were homogenized in lysis buffer (0.1% Triton X-100, 50 mM Tris-HCl, pH7.5, 1 mM EDTA, plus protease inhibitor cocktail). The lysates were immunoprecipitated with control rabbit serum or polyclonal anti-mouse Bax antibody. The immunoprecipitates or the lysates were subjected to electrophoresis in Tris/Tricine gels (16% T, 3% C), electroblotted to PVDF membrane, and immunoblotted with polyclonal anti-HN antibody or monoclonal anti-Bax antibody 6A7 (Trevigen). […]
A rabbit polyclonal antibody raised against Humanin peptide (P04, gift of Dr. Ikuo Nishimoto) was used to examine whether endogenous Humanin peptide interacts with endogenous Bax polypeptide. […] In addition, endogenous Humanin was determined to be a cytosolic protein, based on subcellular fractionation experiments.

[2] = target: T2, BaxΔTM (Homo sapiens, UniProt Q07812); assay: Co-immunoprecipitation of BaxΔTM with GFP-TM(Bax); format: binding; conditions: lysates pre-incubated with peptide
T2 construct: a C-terminally truncated Bax protein (residues 1-169) (BaxΔTM); expressed in transfected cells; host or cells: HEK293T (lysates mixed in vitro)
T2 sequence (Q07812 1-169, stated change not applied): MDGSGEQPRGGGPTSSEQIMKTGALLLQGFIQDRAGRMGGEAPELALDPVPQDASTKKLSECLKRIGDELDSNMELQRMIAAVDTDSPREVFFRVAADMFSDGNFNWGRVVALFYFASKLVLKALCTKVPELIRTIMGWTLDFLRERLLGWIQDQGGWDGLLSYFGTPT
T2 sequence (Q07812 170-192 partner limits assumed): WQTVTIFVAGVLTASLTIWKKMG
Protocol: (§1) (A-B) Humanin peptide prevents STS-induced Bax translocation in vivo. Cos-7 cells were first transfected with GFP-Bax plasmids. After 24 hrs, untagged wild-type or C8P mutant Humanin peptides were introduced into cells using ChariotTM reagent, and 2 h later cells were treated with 1 μM STS. After 4 h, the percentage of cells with translocated Bax was determined (mean±SD; n=3) by confocal microscopy (A) and representative photomicrographs (B). (C) Wild-type or C8P mutant Humanin peptides were introduced into Cos7 cells using ChariotTM reagent. Cytosolic (C) and mitochondria-containing (M) fractions were isolated by differential centrifugation 23 and analyzed by immunoblotting using anti-Bax (top), Hsp60 (middle) (mitochondrial marker), or Tubulin (bottom) (cytosol marker) antibodies. (D) HN or mutant control double-strand siRNAs were transfected into SF268 cells. After 48 h, cells were cultured without (Control) or with 0.1 uM STS. After 24 hr, cells were fractionated and analyzed by immunoblotting as above. (E) Isolated mitochondria were mixed with 400 ng Bax protein, with or without preincubating Bax with 100 uM Humanin or Humanin(C8P) peptides for 10 min. After 3 h at 30° C., mitochondria were centrifuged and the resulting pellets (P) and supernatants (S) were analyzed by immunoblotting using anti-Cytochrome c (top), Hsp60 (middle), and Bax (bottom) antibodies. […]

[3] = system: endogenous Bax protein; assay: Subcellular fractionation and immunoblot of endogenous Bax after STS; format: cell-based; conditions: Cos7 cells, untagged peptides, STS
Protocol: as §1, with “(E) Isolated mitochondria were mixed with 400 ng Bax protein, with or without preincubating Bax with 100 uM Humanin or Humanin(C8P) peptides for 10 min.” left out
These findings were also confirmed by subcellular fractionation, where cytosol and mitochondria-enriched heavy membrane preparations were prepared from Cos7 cells transduced with untagged Humanin or Humanin(C8P) peptides, and the relative amounts of endogenous Bax protein in these two fractions were measured by immunoblot analysis of samples normalized for cell-equivalents. […] Differences in the relative potency of Humanin at blocking Bax translocation as measured by microscopy (FIG. 7A) versus cell fractionation methods (FIG. 7C) can be explained by differences in the sensitivity of the assays, or could possibly indicate that even in cells where some Bax translocation has occurred, less of the total Bax protein associated with mitochondria. […]

[4] = target: T3, RFP-Bax (Homo sapiens, UniProt Q07812); assay: Cellular co-localization in Cos-7 cells (confocal microscope); format: cell-based
T3 construct: expressed in transfected cells; host or cells: Cos-7
T3 sequence (Q07812 whole entry): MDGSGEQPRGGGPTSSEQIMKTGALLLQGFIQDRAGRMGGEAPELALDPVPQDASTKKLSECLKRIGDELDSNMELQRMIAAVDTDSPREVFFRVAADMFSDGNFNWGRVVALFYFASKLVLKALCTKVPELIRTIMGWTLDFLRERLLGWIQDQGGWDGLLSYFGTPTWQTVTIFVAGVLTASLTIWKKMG
Text: GFP-HN and a Red Fluorecence Protein (RFP) vector, RFP-Bax, were transfected into Cos-7 cells. The intracellular localization of the expressed polypeptides was examined using a confocal microscope. […] GFP-HN localized to punctate intracellular membranes and when GFP-HN and RFP-Bax were co-expressed, the two polypeptides co-localized to intracellular membranes (data not shown).

[5] = system: HCT116 parental cells; assay: STS-induced apoptosis in HCT116 parental cells; format: cell-based, human

T1 sequence (Q07813 whole entry): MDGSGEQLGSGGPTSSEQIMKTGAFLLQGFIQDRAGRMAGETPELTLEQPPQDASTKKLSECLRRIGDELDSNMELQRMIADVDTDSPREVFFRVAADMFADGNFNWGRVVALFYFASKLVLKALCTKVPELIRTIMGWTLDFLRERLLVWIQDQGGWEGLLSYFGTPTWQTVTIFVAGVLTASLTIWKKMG

Substance | co-immunoprecipitation with Bax from mouse testis lysates [1] | interaction of BaxΔTM with GFP-TM [2] | Bax translocation by subcellular fractionation [3] | co-localization with RFP-Bax [4] | reduction of percentage of cells undergoing STS-induced apoptosis [5]
Humanin: 24 amino acid polypeptide, cytosolic form of human Humanin (SEQ ID NO:2); used as synthetic peptide or expressed fusion | co-immunoprecipitated | immunoprecipitated | reduced |  | 
GFP-HN: Wild-type full-length Humanin fused to Green Fluorescent Protein |  |  |  | co-localized | about half
